Measurements from patent publication KR20210154940A (dated 2021).

T1: hCEACAM1 (R&D Systems, CAT. NO. 2244-CM) (human, UniProt P13688 35-428)
T1 construct: not shown: a His tag is implied by the use of Anti-His (His1K) biosensors
T1 sequence: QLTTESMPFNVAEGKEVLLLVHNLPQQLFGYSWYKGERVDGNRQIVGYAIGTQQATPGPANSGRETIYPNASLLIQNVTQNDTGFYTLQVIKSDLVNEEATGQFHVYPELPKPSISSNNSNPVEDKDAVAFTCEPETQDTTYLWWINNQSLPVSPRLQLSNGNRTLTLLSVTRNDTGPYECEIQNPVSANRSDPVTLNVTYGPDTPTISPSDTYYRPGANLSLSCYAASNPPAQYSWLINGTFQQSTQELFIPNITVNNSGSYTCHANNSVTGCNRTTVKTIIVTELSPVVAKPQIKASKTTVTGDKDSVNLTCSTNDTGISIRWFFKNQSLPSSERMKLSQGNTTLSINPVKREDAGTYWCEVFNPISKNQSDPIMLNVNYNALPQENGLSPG

B1: 항-CEACAM1 항체의 Fab (Fab of the anti-CEACAM1 antibody, papain fragment of the IgG1-type antibody) (Fab, V domains shown)
VH: EVQLLESGGGLVQPGGSLRLSCAASGFTFSNYAMSWVRQAPGKGLEWVSVISHGGGSIYYADSVKGRLTISRDNSKNTLYLQMNSLRAEDTAVYYCARDPTKGYAPTFDYWGQGTLVTVSS
VL: QSVLTQPPSASGTPGQRVTISCSGSSSNIGNNYVSWYQQLPGTAPKLLIYADSRRPSGVPDRFSGSKSGTSASLAISGLRSEDEADYYCGAWDLSLNGYVFGGGTKLTVLG
B2: 항-CEACAM1 항체 (anti-CEACAM1 antibody, IgG4 type) (antibody, V domains shown)
VH: B1 VH
VL: B1 VL
notes: also called 일 실시예의 항-CEACAM1 항체

Legend:
[1] = molecular target: CEACAM1 N-도메인 (CEACAM1 N-domain, residues 35-141) (human) (UniProt P13688); assay: X-ray crystal structure of the Fab and N-domain complex
[2] = molecular target: T1, hCEACAM1 (R&D Systems, CAT. NO. 2244-CM); assay: BLI (Octet QKe); sentence that introduces Table 5, differs from the table cell
[3] = molecular target: T1, hCEACAM1 (R&D Systems, CAT. NO. 2244-CM); assay: not named in this sentence (BLI in Example 4); differs from the table cell
[4] = molecular target: T1, hCEACAM1 (R&D Systems, CAT. NO. 2244-CM); assay: BLI (Octet QKe); Anti-His (His1K) biosensors, hCEACAM1 (R&D 2244-CM), antibody at 6.25-400 nM

Row | 항원-항체 결합의 전체 표면적 [1] | Kd [2] | Kd [3] | Kd [4] | koff [4] | kon [4] | Binder
1 | 792 Å2 | – | – | – | – | – | B1
2 | – | 3.9 nM | 3.36 nM | 3.39 nM | 0.000567 s⁻¹ | 163000 M⁻¹ s⁻¹ | B2
